Laboratory results reported in patent US20220135655A1 (Dana-Farber, published 2022).

B1: 1F6 (scFv)
scFv: QVQLVQSGAEVKKPGSSVKVSCKASGGTFSSYAISWVRQAPGQGLEWMGGIITIFGTANYAQKFQGRVTITADESTNTAYMELSSLRSEDTAVYYCARGGGGRFDVWGQGTLVTVSSGGGSGGGSGGGSGGGSSYELTQPPSVSGTPGQRVTISCSGSTSNIGNNALNWYQKLPGTAPKLLIYSLNQRPSGVPDRFSGSKSGTSASLAISGLQSEDEADYYCEAWDDSLSGPVFGGGTKVTVL
B2: 2B6 (scFv)
scFv: QVQLVQSGAEVKKPGSSVKVSCKASGGPFSSYAISWVRQAPGQGLEWMGGISPIFGTANYAQKFQGRVTITADKSTNTAYMELSSLRSEDTAVYYCARGRSYIVSVSPGFDVWGQGTLVTVSSGGGSGGGSGGGSGGGSQSVLTQPPSASGSPGQSVTISCTGTSSDVGGYNYVSWYQQYPGKAPKLMIYEVSKRPSGVPDRFSGSKSGTSASLAISELQSEDEADYYCASWDDSLNAYVFGSGTKVTVL
B3: 2F1 (scFv)
scFv: QVQLVQSGAEVKKPGSSVKVSCKASGGTFSSYAISWVRQAPGQGLEWMGGITPLFGTANYAQKFQGRVTITADDSTSTAYMELSSLRSEDTAVYYCARGPTLYSPPVFDVWGQGTLVTVSSGGGSGGGSGGGSGGGSQTVVTQEPSFSVSPGGTITLTCGLSSGSVSTTNYPSWYQQTPGRTPRTLIYNTNTRSSGVPDRFSGSILGNKAALTITGAQAGDESDYYCVLYMGRGIYVFGSGTKVSVL
B4: 2C1 (scFv)
scFv: QVQLVQSGAEVKKPGSSVKVSCKASGGIFSSYAISWVRQAPGQGLEWMGGISAIFGTANYAQKFQGRVTITADESTSTAYMELSSLRSEDTAVYYCARDSGIASGYTAYMDYWGQGTLVTVSSGGGSGGGSGGGSGGGSSSELTQDPAVSVALGQTVRITCQGDSLRTSYASWYQQKPGQSPVLVIYQSTKRPSGIPERFSASSSGNTASLTITGAQAEDEADYYCNSRGSGGNPYVFGTGTKVTVL
B5: 1F5 (scFv)
scFv: QVQLVQSGAEVKKPGSSVKVSCKASGGTFSSYAISWVRQAPGQGLEWMGGISPIFGTANYAQKFQGRVTITSDESTSTAYMELSSLRSEDTAVYYCARDQGGTRGNYFDVWGQGTLVTVSSGGGSGGGSGGGSGGGSQPVLTQPPSVSKGLRQTATVTCTGNSNNVGNQGAAWLQQHQGHPPKLLSYRNNNRPSGISERLSASRSGNTASLTIAGLQPEDEADYYCSAWDNTVSGWVFGGGTRVTVL
B6: 1F1 (scFv)
scFv: QVQLVQSGAEVKKPGSSVKVSCKASGGTFSSYAISWVRQAPGQGLEWMGGISAIFGTANYAQKFQGRVTITADESTRTAYMELSSLRSEDTAVYYCARGSGYYVAASGAFDVWGQGTLVTVSSGGGSGGGSGGGSGGGSQPGLTQPPSVSKGLRQTATLTCTGNINNVGDQGAGWLQQHQGRPPKLLSYRNSNRPSGVSERFSASRSGNTASLTITGLQPEDEADYYCSAWDSSLSDWVFGGGTKLTVL
B7: 1F12 (scFv)
scFv: QVQLVQSGAEVKKPGSSVKVSCKASGGIFSSYAISWVRQAPGQGLEWMGGITPIFGTANYAQKFQGRVTITADESTRTAYMELSSLRSEDTAVYYCARDLSRDSLNLPGSSPGYDLWGQGTLVTVSSGGGSGGGSGGGSGGGSETTLTQSPGTLSLSPGERATLSCRASQSVSSNLAWYQQKPGQAPRLLIYGASTRATGIPARFSGSGSGTEFTLTISSLQSEDFAVYYCQQYSSSPYTFGQGTKLEIK
B8: 2E11 (scFv)
scFv: QVQLVQSGAEVKKPGSSVKVSCKASGGTFSSYAISWVRQAPGQGLEWMGGINPIFGTANYAQKFQGRVTITADESTNTAYMELSSLRSEDTAVYYCARGESAYYSRNYDVWGQGTLVTVSSGGGSGGGSGGGSGGGSSYELTQPPSVSKGLRQTATLTCTGNSSNVGNQGASWLQQHQGHPPKLLSYRNDNRPSGISERFSASRSGNTASLTITGLQPEDEADYYCSAWDNSLSAWVFGGGTKLTVL
B9: 1H2 (scFv)
scFv: QVQLVQSGAEVKKPGSSVKVSCKASGGPFRSYAISWVRQAPGQGLEWMGGIIPIFGTANYAQKFQGRVTITADESTSTAYMELSSLRSEDTAVYYCARGGVYSFDVWGQGTLVTVSSGGGSGGGSGGGSGGGSQSGLTQPPSASGTPGQRVTISCSGSGSNVGSNVVNWYQHLPGTAPKLLIYRNNQRPSGVPDRFSGSKSGTSASLAISGLQSEDEADYYCAAWDDRLNGFVFGTGTKVTVL
B10: 2A1 (scFv)
scFv: QVQLVQSGAEVKKPGSSVKVSCKASGVIFSSYAISWVRQAPGQGLEWMGGIIPIFGTANYAQKFQGRVTITADKSTSTAYMELSSLRSEDTAVYYCARGGSGSFDVWGQGTLVTVSSGGGSGGGSGGGSGGGSQPGLTQPPSASGTPGQRVTISCSGSSSNLGSNYVFWYQHLPGAAPKLLIYRNSQRPSGVPDRFSGSKSGTSASLAISGLQSEDEADYYCAAWDDSLNGVVFGGGTKLTVL
B11: 2A11 (scFv)
scFv: QVQLVQSGAEVKKPGSSVKVSCKASGVTFSSYAISWVRQAPGQGLEWMGGISPVFGTANYAQKFQGRVTITADDSTNTAYMELSSLRSEDTAVYYCARSRGYTVSSLAGRYFDQWGQGTLVTVSSGGGSGGGSGGGSGGGSETTLTQSPGTLSLSPGERASLSCKASESLCSTCLAWYQQKPGQAPRLIVYGATSRATGIPDRFSGSGSGTDFTLTISRLEPEDFAVYYCQQYGSSPQTFGQGTKVEIK
B12: 2E12 (scFv)
scFv: QVQLVQSGAEVKKPGSSVKVSCKASGVTFSSYAISWVRQAPGQGLEWMGGISPMFGTANYAQKFQGRVTITADESTNTAYMELSSLRSEDTAVYYCARGGGYYPAGVGRYDVWGQGTLVTVSSGGGSGGGSGGGSGGGSDIVMTQSPDSLAVSLGERATINCKSSQNVLYSSNNKNNLAWYQQRPGQPPKVLLYWASTRASGVPDRFSGSGSGTDFTLTINSLQAEDVALYYCQQYYGKPFTFGPGTKVEIK
B13: 1H4 (scFv)
scFv: QVQLVQSGAEVKKPGSSVKVSCKASGVPFSSYAISWVRQAPGQGLEWMGGISPLFGTANYAQKFQGRVTITADQSTSTVYMELSSLRSEDTAVYYCARGLGTYSPSLYPRGMDVWGQGTLVTVSSGGGSGGGSGGGSGGGSLPVLTQPPSASGTPGQSVTISCSGSSSNIGRNDVNWYQQFPGRAPKLLIYGRDERPFGVPARFSGSKSGTSASLAISGLQSEDEADYYCAAWDASLMIYVFGTGTTVTVL
B14: 1F3 (scFv)
scFv: QVQLVQSGAEVKKPGSSVKVSCKASGVIFSSYAISWVRQAPGQGLEWMGGISPIFGTANYAQKFQGRVTITADESTSTAYMELSSLRSEDTAVYYCARSRGYAPGTSFHYDVWGQGTLVTVSSGGGSGGGSGGGSGGGSLPVLTQAPSMSVAPGKTASITCGGDNIGSKSVHWYQQKPGQAPVLVMYYDSDRPSGIPERFSGSNSGNTATLTISRVEAGDEADYFCQLWDHTNSHVVFGGRTKLTVL
B15: 1E6 (scFv)
scFv: QVQLVQSGAEVKKPGSSVKVSCKASGVTFSSYAISWVRQAPGQGLEWMGGISPIFGTANYAQKFQGRVTITADESTSTAYMELSSLRSEDTAVYYCARGREYYASNGDSFDVWGQGTLVTVSSGGGSGGGSGGGSGGGSQPVLTQPPSVSVAPGKTASISCEGNNIATKSVHWYQQKSGHAPVVVVYHDSDRPSGVPDRFSGSKSGTSASLAISGLRSEDEADYYCAAWDDSLSGPWVFGGGTKLTVL

Molecular target: A/California/04/2009 (H1CA0409) recombinant HA (influenza A virus A/California/04/2009, UniProt P26140 18-529)
Assay: phage display panning (immunotube) against trimeric HA

Binder | binding result
B1 | binds
B2 | binds
B3 | binds
B4 | binds
B5 | binds
B6 | binds
B7 | binds
B8 | binds
B9 | binds
B10 | binds
B11 | binds
B12 | binds
B13 | binds
B14 | binds
B15 | binds
